Assay results as given in patent publication US20220308072A1.

How the values were obtained:
[1] = biological target: Recombinant, his tagged full length human frataxin protein (Abcam ab95502) (human) (UniProt Q16595); test: Simoa sandwich 3-step; capture Ab-1
[2] = biological target: Recombinant, his tagged full length human frataxin protein (Abcam ab95502) (human) (UniProt Q16595); test: Simoa sandwich 2-step; capture Ab-4
[3] = biological target: Recombinant, his tagged full length human frataxin protein (Abcam ab95502) (human) (UniProt Q16595); test: Simoa sandwich 2-step; capture Ab-1; 50 pM SβG
[4] = biological target: Recombinant, his tagged full length human frataxin protein (Abcam ab95502) (human) (UniProt Q16595); test: Simoa sandwich 3-step; capture Ab-1; frataxin 100 pg/mL
[5] = biological target: Recombinant, his tagged full length human frataxin protein (Abcam ab95502) (human) (UniProt Q16595); test: Simoa sandwich 3-step; capture Ab-2; frataxin 100 pg/mL
[6] = biological target: Recombinant, his tagged full length human frataxin protein (Abcam ab95502) (human) (UniProt Q16595); test: Simoa sandwich 3-step; capture Ab-2; frataxin 1000 pg/mL
[7] = biological target: Recombinant, his tagged full length human frataxin protein (Abcam ab95502) (human) (UniProt Q16595); test: Simoa sandwich 3-step; capture Ab-1; frataxin 1000 pg/mL
[8] = biological target: Recombinant, his tagged full length human frataxin protein (Abcam ab95502) (human) (UniProt Q16595); test: Simoa sandwich 2-step; capture Ab-1; frataxin 2.06 pg/mL
[9] = biological target: Recombinant, his tagged full length human frataxin protein (Abcam ab95502) (human) (UniProt Q16595); test: Simoa sandwich 2-step; capture Ab-1; frataxin 55.6 pg/mL
[10] = biological target: Recombinant, his tagged full length human frataxin protein (Abcam ab95502) (human) (UniProt Q16595); test: Simoa sandwich; capture Ab-1; no helper beads; frataxin 167 pg/mL
[11] = biological target: Recombinant, his tagged full length human frataxin protein (Abcam ab95502) (human) (UniProt Q16595); test: Simoa sandwich 2-step; capture Ab-1; 50 pM SβG; frataxin 55.6 pg/mL
[12] = biological target: Recombinant, his tagged full length human frataxin protein (Abcam ab95502) (human) (UniProt Q16595); test: Simoa sandwich 2-step; capture Ab-1; 150 pM SβG; frataxin 6.17 pg/mL
[13] = biological target: Recombinant, his tagged full length human frataxin protein (Abcam ab95502) (human) (UniProt Q16595); test: Simoa sandwich 2-step; capture Ab-1; 150 pM SβG; frataxin 0.686 pg/mL
[14] = biological target: Recombinant, his tagged full length human frataxin protein (Abcam ab95502) (human) (UniProt Q16595); test: Simoa sandwich 2-step (35 min-5 min); capture Ab-1; with helper beads; frataxin 167 pg/mL
[15] = biological target: Recombinant, his tagged full length human frataxin protein (Abcam ab95502) (human) (UniProt Q16595); test: Simoa sandwich 2-step (120 min-5 min); capture Ab-1; Diluent 1 + 5% NCS; frataxin 22.2 pg/mL
[16] = biological target: Recombinant, his tagged full length human frataxin protein (Abcam ab95502) (human) (UniProt Q16595); test: Simoa sandwich 2-step (120 min-5 min); capture Ab-1; Diluent 1 + 5% NCS; frataxin 7.41 pg/mL
[17] = biological target: Recombinant, his tagged full length human frataxin protein (Abcam ab95502) (human) (UniProt Q16595); test: Simoa sandwich 2-step (120 min-5 min); capture Ab-1; Diluent 1 + 10% NCS; frataxin 111 pg/mL
[18] = biological target: Recombinant, his tagged full length human frataxin protein (Abcam ab95502) (human) (UniProt Q16595); test: Simoa sandwich 2-step (120 min-5 min); capture Ab-1; Diluent 1 + 5% NCS; frataxin 0.274 pg/mL
[19] = biological target: Recombinant, his tagged full length human frataxin protein (Abcam ab95502) (human) (UniProt Q16595); test: Simoa sandwich 2-step (120 min-5 min); capture Ab-1; Diluent 1 + 5% NCS; frataxin 0.823 pg/mL
[20] = biological target: Recombinant, his tagged full length human frataxin protein (Abcam ab95502) (human) (UniProt Q16595); test: Simoa sandwich 2-step (120 min-5 min); capture Ab-1; Diluent 1 + 10% NCS; frataxin 22.2 pg/mL
[21] = biological target: Recombinant, his tagged full length human frataxin protein (Abcam ab95502) (human) (UniProt Q16595); test: Simoa sandwich 2-step (120 min-5 min); capture Ab-1; Diluent 1 + 10% NCS; frataxin 7.41 pg/mL
[22] = biological target: Recombinant, his tagged full length human frataxin protein (Abcam ab95502) (human) (UniProt Q16595); test: Simoa sandwich 2-step (120 min-5 min); capture Ab-1; Diluent 1 + 10% NCS; frataxin 1.37 pg/mL
[23] = biological target: Recombinant, his tagged full length human frataxin protein (Abcam ab95502) (human) (UniProt Q16595); test: Simoa sandwich 2-step (120 min-5 min); capture Ab-1; Diluent 1 + 10% NCS; frataxin 1000 pg/mL
[24] = biological target: Recombinant, his tagged full length human frataxin protein (Abcam ab95502) (human) (UniProt Q16595); test: Simoa sandwich 2-step (120 min-5 min); capture Ab-1; Diluent 1 + 10% NCS; frataxin 12.3 pg/mL
[25] = biological target: Recombinant, his tagged full length human frataxin protein (Abcam ab95502) (human) (UniProt Q16595); test: Simoa sandwich 2-step (120 min-5 min); capture Ab-1; Diluent 1 + 10% NCS; frataxin 0.274 pg/mL

Sequence of UniProt Q16595 (Q16595 42-210): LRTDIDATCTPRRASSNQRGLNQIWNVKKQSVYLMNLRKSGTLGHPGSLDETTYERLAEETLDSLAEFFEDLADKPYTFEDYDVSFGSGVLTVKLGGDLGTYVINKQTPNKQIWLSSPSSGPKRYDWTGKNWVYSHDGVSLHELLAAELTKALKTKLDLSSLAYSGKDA

## Ab-3, mouse monoclonal [18A5DB1] to Frataxin (Abcam ab110328) (antibody)
[1]
  LOD: 1.14 pg/mL
[2]
  LOD: 0.34 pg/mL
[3]
  LOD: 0.132 pg/mL
[4]
  Ave AEB: 2.47 AEB
  S/B: 50
[5]
  Ave AEB: 2.44 AEB
  S/B: 38.9
[6]
  Ave AEB: 20.7 AEB
  S/B: 330
[7]
  Ave AEB: 19.6 AEB
  S/B: 333
[8]
  Ave AEB: 0.318 AEB
  S/B: 3.06
[9]
  Ave AEB: 5.52 AEB
  S/B: 53.2
[10]
  AEB Rep1: 2.42 AEB
  AEB Rep2: 2.1 AEB
  Ave AEB: 2.26 AEB
  S/B: 100
[11]
  Ave AEB: 1.65 AEB
  S/B: 90
[12]
  Ave AEB: 0.521 AEB
  S/B: 11.6
[13]
  Ave AEB: 0.0717 AEB
  S/B: 1.6
[14]
  AEB Rep1: 9.19 AEB
  AEB Rep2: 9.19 AEB
  Ave AEB: 9.19 AEB
  S/B: 377
[15]
  Ave AEB: 0.395 AEB
  S/B: 21.9
[16]
  Ave AEB: 0.156 AEB
  S/B: 8.62
[17]
  Ave AEB: 0.515 AEB
  S/B: 48
[18]
  Ave AEB: 0.0228 AEB
  S/B: 1.26
[19]
  Ave AEB: 0.0324 AEB
  S/B: 1.79
[20]
  Ave AEB: 0.2 AEB
  S/B: 11
[21]
  Ave AEB: 0.0923 AEB
  S/B: 5.08
[22]
  Ave AEB: 0.0153 AEB
  S/B: 1.42
[23]
  Ave AEB: 5.18 AEB
  S/B: 482
[24]
  Ave AEB: 0.0631 AEB
  S/B: 5.87
[25]
  Ave AEB: 0.023 AEB
  S/B: 1.27
